Patent US20190241648A1 (STATEN BIOTECHNOLOGY B V, published 2019)
Ends that are not written are not given here.

How the values were obtained:
Experiment in all cases: peptide microarray
ApoC3 peptide … D66E = molecular target: T1, ApoC3 peptide … D66E (human, not fully specified (bridges); also: cyclic constrained)
T1 peptide: DKFSEFWELDPEV
Experimental: (§1) F64 was completely variable.
(§2) Pre: staining of one of the ApoC3 peptide microarrays was done with the secondary antibody goat anti-human IgG (Fe) DyLight680 (1:5000) and control antibody mouse monoclonal anti-HA (12CA5) DyLight800 (1:2000) to investigate background interactions of the secondary antibody with the antigen-derived peptides that could interfere with the main assays. Subsequent incubation of other ApoC3 peptide microarrays with antibody samples was followed by staining with secondary and control antibodies as well as read-out at scanning intensities of 7/7 (red/green). The additional HA peptides framing the peptide arrays were stained as internal quality control to confirm the assay quality and the peptide microarray integrity.

ApoC3 peptide … L67T = molecular target: T2, ApoC3 peptide … L67T (human, not fully specified (bridges); also: cyclic constrained)
T2 peptide: DKFSEFWDTDPEV
Experimental: as §1, §2

ApoC3 peptide … W65E = ApoC3 peptide … W65E (human, cyclic constrained)
Experimental: as §1, §2

ApoC3 peptide … S62V = ApoC3 peptide … S62V (human, cyclic constrained)
Experimental: as §1, §2

ApoC3 peptide … E70D = ApoC3 peptide … E70D (human, cyclic constrained)
Experimental: as §1, §2

ApoC3 peptide … D59M = molecular target: T3, ApoC3 peptide … D59M (human, cyclic constrained)
T3 peptide: MKFSEFWDLDPEV
Experimental: as §1, §2

ApoC3 peptide … E63P = ApoC3 peptide … E63P (human, cyclic constrained)
Experimental: as §1, §2

ApoC3 peptide … D66C = molecular target: T4, ApoC3 peptide … D66C (human, not fully specified (bridges); also: cyclic constrained)
T4 peptide: DKFSEFWCLDPEV
Experimental: as §1, §2

ApoC3 peptide … S62K = ApoC3 peptide … S62K (human, cyclic constrained)
Experimental: as §1, §2

ApoC3 peptide … E63H = ApoC3 peptide … E63H (human, cyclic constrained)
Experimental: as §1, §2

ApoC3 peptide … K60V = molecular target: T5, ApoC3 peptide … K60V (human, not fully specified (bridges); also: cyclic constrained)
T5 peptide: DVFSEFWDLDPEV
Experimental: as §1, §2

ApoC3 peptide … P69A = molecular target: T6, ApoC3 peptide … P69A (human, not fully specified (bridges); also: cyclic constrained)
T6 peptide: DKFSEFWDLDAEV
Experimental: as §1, §2

ApoC3 peptide … F64M = molecular target: T7, ApoC3 peptide … F64M (human, not fully specified (bridges); also: cyclic constrained)
T7 peptide: DKFSEMWDLDPEV
Experimental: as §1, §2

ApoC3 peptide … F64Y = molecular target: T8, ApoC3 peptide … F64Y (human, not fully specified (bridges); also: cyclic constrained)
T8 peptide: DKFSEYWDLDPEV
Experimental: as §1, §2

ApoC3 peptide … S62P = ApoC3 peptide … S62P (human, cyclic constrained)
Experimental: as §1, §2

ApoC3 peptide … P69I = molecular target: T9, ApoC3 peptide … P69I (human, not fully specified (bridges); also: cyclic constrained)
T9 peptide: DKFSEFWDLDIEV
Experimental: as §1, §2

ApoC3 peptide … W65P = molecular target: T10, ApoC3 peptide … W65P (human, not fully specified (bridges); also: cyclic constrained, ring type and places not given here)
T10 peptide: DKFSEFPDLDPEV
Experimental: as §1, §2

ApoC3 peptide … D66W = molecular target: T11, ApoC3 peptide … D66W (human, not fully specified (bridges); also: cyclic constrained)
T11 peptide: DKFSEFWWLDPEV
Experimental: as §1, §2

ApoC3 peptide … S62M = ApoC3 peptide … S62M (human, cyclic constrained)
Experimental: as §1, §2

ApoC3 peptide … V71T = ApoC3 peptide … V71T (human, cyclic constrained)
Experimental: as §1, §2

ApoC3 peptide … F64H = molecular target: T12, ApoC3 peptide … F64H (human, not fully specified (bridges); also: cyclic constrained)
T12 peptide: DKFSEHWDLDPEV
Experimental: as §1, §2

ApoC3 peptide … W65V = molecular target: T13, ApoC3 peptide … W65V (human, not fully specified (bridges); also: cyclic constrained, ring type and places not given here)
T13 peptide: DKFSEFVDLDPEV
Experimental: as §1, §2

ApoC3 peptide … F64I = molecular target: T14, ApoC3 peptide … F64I (human, not fully specified (bridges); also: cyclic constrained)
T14 peptide: DKFSEIWDLDPEV
Experimental: as §1, §2

ApoC3 peptide … D59P = molecular target: T15, ApoC3 peptide … D59P (human, cyclic constrained)
T15 peptide: PKFSEFWDLDPEV
Experimental: as §1, §2

ApoC3 peptide … P69N = ApoC3 peptide … P69N (human, cyclic constrained)
Experimental: as §1, §2

ApoC3 peptide … D66K = molecular target: T16, ApoC3 peptide … D66K (human, not fully specified (bridges); also: cyclic constrained)
T16 peptide: DKFSEFWKLDPEV
Experimental: as §1, §2

ApoC3 peptide … P69H = molecular target: T17, ApoC3 peptide … P69H (human, not fully specified (bridges); also: cyclic constrained)
T17 peptide: DKFSEFWDLDHEV
Experimental: as §1, §2

ApoC3 peptide … L67Q = molecular target: T18, ApoC3 peptide … L67Q (human, not fully specified (bridges); also: cyclic constrained)
T18 peptide: DKFSEFWDQDPEV
Experimental: as §1, §2

ApoC3 peptide … F61A = molecular target: T19, ApoC3 peptide … F61A (human, cyclic constrained)
T19 peptide: DKASEFWDLDPEV
Experimental: as §1, §2

ApoC3 peptide … F61S = molecular target: T20, ApoC3 peptide … F61S (human, not fully specified (bridges); also: cyclic constrained)
T20 peptide: DKSSEFWDLDPEV
Experimental: as §1, §2

ApoC3 peptide … K60I = molecular target: T21, ApoC3 peptide … K60I (human, not fully specified (bridges); also: cyclic constrained)
T21 peptide: DIFSEFWDLDPEV
Experimental: as §1, §2

ApoC3 peptide … D59S = molecular target: T22, ApoC3 peptide … D59S (human, cyclic constrained)
T22 peptide: SKFSEFWDLDPEV
Experimental: as §1, §2

ApoC3 peptide … S62Y = ApoC3 peptide … S62Y (human, cyclic constrained)
Experimental: as §1, §2

ApoC3 peptide … F61N = molecular target: T23, ApoC3 peptide … F61N (human, not fully specified (bridges); also: cyclic constrained)
T23 peptide: DKNSEFWDLDPEV
Experimental: as §1, §2

ApoC3 peptide … E70Q = molecular target: T24, ApoC3 peptide … E70Q (human, not fully specified (bridges); also: cyclic constrained)
T24 peptide: DKFSEFWDLDPQV
Experimental: as §1, §2

ApoC3 peptide … E63N = ApoC3 peptide … E63N (human, cyclic constrained)
Experimental: as §1, §2

ApoC3 peptide … E70H = molecular target: T25, ApoC3 peptide … E70H (human, not fully specified (bridges); also: cyclic constrained)
T25 peptide: DKFSEFWDLDPHV
Experimental: as §1, §2

% of binding to wild-type peptide (ApoC3 peptide … D66E): 18.9%
% of binding to wild-type peptide (ApoC3 peptide … L67T): 100%
% of binding to wild-type peptide (ApoC3 peptide … W65E): 168%
% of binding to wild-type peptide (ApoC3 peptide … S62V): 93.6%
% of binding to wild-type peptide (ApoC3 peptide … E70D): 13.8%
% of binding to wild-type peptide (ApoC3 peptide … D59M): 60.2%
% of binding to wild-type peptide (ApoC3 peptide … E63P): 138%
% of binding to wild-type peptide (ApoC3 peptide … D66C): 7.92%
% of binding to wild-type peptide (ApoC3 peptide … S62K): 11.1%
% of binding to wild-type peptide (ApoC3 peptide … E63H): 12.3%
% of binding to wild-type peptide (ApoC3 peptide … K60V): 106%
% of binding to wild-type peptide (ApoC3 peptide … P69A): 57.4%
% of binding to wild-type peptide (ApoC3 peptide … F64M): 109%
% of binding to wild-type peptide (ApoC3 peptide … F64Y): 86.4%
% of binding to wild-type peptide (ApoC3 peptide … S62P): 27.1%
% of binding to wild-type peptide (ApoC3 peptide … P69I): 81.9%
% of binding to wild-type peptide (ApoC3 peptide … W65P): 13.8%
% of binding to wild-type peptide (ApoC3 peptide … D66W): 0%
% of binding to wild-type peptide (ApoC3 peptide … S62M): 63.5%
% of binding to wild-type peptide (ApoC3 peptide … V71T): 94.5%
% of binding to wild-type peptide (ApoC3 peptide … F64H): 107%
% of binding to wild-type peptide (ApoC3 peptide … W65V): 24%
% of binding to wild-type peptide (ApoC3 peptide … F64I): 100%
% of binding to wild-type peptide (ApoC3 peptide … D59P): 107%
% of binding to wild-type peptide (ApoC3 peptide … P69N): 32.7%
% of binding to wild-type peptide (ApoC3 peptide … D66K): 0.33%
% of binding to wild-type peptide (ApoC3 peptide … P69H): 19.2%
% of binding to wild-type peptide (ApoC3 peptide … L67Q): 25.7%
% of binding to wild-type peptide (ApoC3 peptide … F61A): 41.1%
% of binding to wild-type peptide (ApoC3 peptide … F61S): 39.2%
% of binding to wild-type peptide (ApoC3 peptide … K60I): 116%
% of binding to wild-type peptide (ApoC3 peptide … D59S): 87.5%
% of binding to wild-type peptide (ApoC3 peptide … S62Y): 16.3%
% of binding to wild-type peptide (ApoC3 peptide … F61N): 48.3%
% of binding to wild-type peptide (ApoC3 peptide … E70Q): 2.1%
% of binding to wild-type peptide (ApoC3 peptide … E63N): 38.8%
% of binding to wild-type peptide (ApoC3 peptide … E70H): 0.03%
B1: anti-ApoC3 antibody 6A6 (antibody, V domains shown)
VH: EVQLVESGGGLVQPGGSLRLSCAASGFTFSSYAGRWVRQVPGKGLEWVSSINAGGGSTSYADSVKGRFTISRDNAKNTLYLQMNSLKPEDTAKYYCTQNSYRYWGQGTRVAVSS
VL: DVVLTQTPGSLSVVPGESASISCKASQSLIHTDGKTYLYWLLQKPGQRPQLLIYQVSSHESGVPDRFTGSGSGTDFTLKISGVKAEDAGVYYCAQATYNPRTFGQGTKLEIK
notes: it was detected with goat anti-human IgG (Fc); also called mAb 6A6; llama antibody 6A6
